{
  "source": "patent US20250163404A1",
  "about": "“PHAGE DISPLAY-BASED CELL-PENETRATING PEPTIDE DISCOVERY PLATFORM AND METHODS OF MAKING AND USING THE SAME” (Eli Lilly and Company, priority 2022, published 2025)",
  "molecules": {"B1": {"name": "H4: engineered M13 IX104 phage clone with FLVIR cathepsin substrate copies in pIII GS2 linker (nucleic acid)", "DNA": "GCTGAAACTGTTGAAAGTTGTTTAGCAAAATCCCATACAGAAAATTCATTTACTAACGTCTGGAAAGACGACAAAACTTTAGATCGTTACGCTAACTATGAGGGCTGTCTGTGGAATGCTACAGGCGTTGTAGTTTGTACTGGTGACGAAACTCAGTGTTACGGTACATGGGTTCCTATTGGGCTTGCTATCCCTGAAAATGAGGGTGGTGGCTCTGAGGGTGGCGGTTCTGAGGGTGGCGGTTCTGAGGGTGGCGGTACTAAACCTCCTGAGTACGGTGATACACCTATTCCGGGCTATACTTATATCAACCCTCTCGACGGCACTTATCCGCCTGGTACTGAGCAAAACCCCGCTAATCCTAATCCTTCTCTTGAGGAGTCTCAGCCTCTTAATACTTTCATGTTTCAGAATAATAGGTTCCGAAATAGGCAGGGGGCATTAACTGTTTATACGGGCACTGTTACTCAAGGCACTGACCCCGTTAAAACTTATTACCAGTACACTCCTGTATCATCAAAAGCCATGTATGACGCTTACTGGAACGGTAAATTCAGAGACTGCGCTTTCCATTCTGGCTTTAATGAGGATTTATTTGTTTGTGAATATCAAGGCCAATCGTCTGACCTGCCTCAACCTCCTGTCAATGCTGGCGGCGGCTCTTTTTTAGTTATTAGAGGTGGTGGTTCTGGTGGCGGCTCTGAGGGTGGTGGCTCTGAGTTTTTAGTTATTAGAGGTGGCGGTTCTGAGGGTGGCGGCTCTGAGGGAGGCGGTTCCGGTGGTGGCTCTGGTTCCGGTGATTTTGATTATGAAAAGATGGCAAACGCTAATAAGGGGGCTATGACCGAAAATGCCGATGAAAACGCGCTACAGTCTGACGCTAAAGGCAAACTTGATTCTGTCGCTACTGATTACGGTGCTGCTATCGATGGTTTCATTGGTGACGTTTCCGGCCTTGCTAATGGTAATGGTGCTACTGGTGATTTTGCTGGCTCTAATTCCCAAATGGCTCAAGTCGGTGACGGTGATAATTCACCTTTAATGAATAATTTCCGTCAATATTTACCTTCCCTCCCTCAATCGGTTGAATGTCGCCCTTTTGTCTTTAGCGCTGGTAAACCATATGAATTTTCTATTGATTGTGACAAAATAAACTTATTCCGTGGTGTCTTTGCGTTTCTTTTATATGTTGCCACCTTTATGTATGTATTTTCTACGTTTGCTAACATACTGCGTAATAAGGAGTCT"}},
  "key": {"[1]": {"test_system": "CaCo2 lysosome (lysosomal cathepsins)", "experiment": "Phage infectivity after incubation with CaCo2 lysosomal extract", "type": "biochemical", "details": "30 min. incubation at 37° C., n=3", "procedure": "(§1) Subcellular fractionation: cytosolic and endosomal extraction are prepared according to manufactures' protocols from ThermoFisher Scientific (Cat. No. 89842) and Invent Biotechnologies (Cat. No. #ED-028), respectively. The starting cell number is 5×10^6 cells for one cytosolic extraction, and 3×10^7 cells for one endosome extraction. Lysosomal isolation from different cell types are optimized based on an Abcam kit (Cat. No. ab234047) for homogenization step and increased isolation scale. The starting cell number for one lysosomal isolation is 2×10^8 cells.\n(§2) Ten rounds of overnight phage culture described above are grown to evaluate substrate sequence retention for each phage clone. Sanger sequencing is performed after each round of phage culture to confirm the substrate insertion. Final phage clones with the substrate insertion are then evaluated for cathepsin accessibility by incubation with lysosomal extract from different mammalian cell lines.\n(§3) The accessibility of clone A1 and H4 to active cathepsins is further assessed in lysosomal extracts from CaCo2 and HEK293 cells in addition to CHO cells. […] (see, FIG. 3). CaCo2 lysosome: clone A1 (mean=79.83%, SEM=9.5%) vs. H4 (mean=34.63%, SEM=13.5%), p=0.22, n=3. HEK293 lysosome: clone A1 (mean=75.1%, SEM=9.7%) vs. H4 (mean=9.5%, SEM=1.6%), p=0.018, n=3. […]"}, "[2]": {"test_system": "CHO cell lysosomal extracts (active cathepsins)", "experiment": "Phage infectivity after incubation with CHO cell lysosomal extract", "type": "biochemical, Chinese hamster", "procedure": "as §1, §2\nThe accessibility of the engineered GS2 linker of the 18 phage clones to active cathepsins (confirmed by fluorogenic cleaving assay) is assessed by incubating phage clones with CHO cell lysosomal extracts at 37° C. The assessment is repeated 4 times with independently isolated lysosome under acidic environment (about pH 5). […] (as shown in the representative graph in FIG. 2).\nThe accessibility of clone A1 and H4 to active cathepsins is further assessed in lysosomal extracts from CaCo2 and HEK293 cells in addition to CHO cells. […] (see, FIG. 3). CaCo2 lysosome: clone A1 (mean=79.83%, SEM=9.5%) vs. H4 (mean=34.63%, SEM=13.5%), p=0.22, n=3. HEK293 lysosome: clone A1 (mean=75.1%, SEM=9.7%) vs. H4 (mean=9.5%, SEM=1.6%), p=0.018, n=3. CHO lysosome: clone A1 (mean=95.58%, SEM=13.8%) vs. H4 (mean=2.738%, SEM=0.8%), p<0.0001, n=6."}, "[3]": {"test_system": "HEK293 lysosome (lysosomal cathepsins)", "experiment": "Phage infectivity after incubation with HEK293 lysosomal extract", "type": "biochemical", "details": "30 min. incubation at 37° C., n=3", "procedure": "as §1, §2, §3"}},
  "data": [
    {"molecule": "B1", "values": [
      {"measurement": "infectivity (mean)", "setting": "[1]", "result": 34.63, "unit": "%"},
      {"measurement": "infectivity reduction", "setting": "[2]; CHO lysosomal extract, 37° C., about pH 5", "result": 9800},
      {"measurement": "infectivity (mean)", "setting": "[2]; CHO lysosomal extract, 37° C., about pH 5, n=4", "result": 2, "unit": "%"},
      {"measurement": "infectivity (mean)", "setting": "[2]; CHO lysosome, 30 min. incubation at 37° C., n=6", "result": 2.738, "unit": "%"},
      {"measurement": "infectivity (mean)", "setting": "[3]", "result": 9.5, "unit": "%"}
    ]}
  ]
}
